Assay [1] addresses T1, F protein of wild type RSV A/Long (respiratory syncytial virus strain …, UniProt P12568 26-574). Kind of assay: cell-based or functional assay.
The target of assay [2] is T1, F protein of wild type RSV A/Long. Put plainly: cell-based or functional assay. The source holds these as a separate data set.
The target of assay [3] is T2, F protein of RSV MARM with K272Q, N262K (respiratory syncytial virus strain …, UniProt P12568 26-574).
T2 construct: whole, on cells; also called MARM #13; MARM 13
Put plainly: IFA on MARM-infected HEp-2 cells.

Assay [4] has as its target T3, RSV F glycoprotein (NUF4) (respiratory syncytial virus).
T3 chain 1: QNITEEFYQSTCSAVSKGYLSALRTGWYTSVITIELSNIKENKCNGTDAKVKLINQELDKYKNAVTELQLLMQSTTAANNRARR
T3 chain 2: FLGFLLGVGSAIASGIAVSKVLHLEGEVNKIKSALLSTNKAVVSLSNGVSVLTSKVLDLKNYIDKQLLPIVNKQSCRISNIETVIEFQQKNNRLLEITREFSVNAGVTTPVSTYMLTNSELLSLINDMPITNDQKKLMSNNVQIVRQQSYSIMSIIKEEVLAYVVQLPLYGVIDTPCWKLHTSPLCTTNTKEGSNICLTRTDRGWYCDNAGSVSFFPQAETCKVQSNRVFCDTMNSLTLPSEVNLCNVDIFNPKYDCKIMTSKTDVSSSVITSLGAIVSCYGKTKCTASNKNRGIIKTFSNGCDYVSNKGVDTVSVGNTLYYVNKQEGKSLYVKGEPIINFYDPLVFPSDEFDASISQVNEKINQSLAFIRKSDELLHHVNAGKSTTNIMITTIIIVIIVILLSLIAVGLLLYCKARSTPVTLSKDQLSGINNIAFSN
Kind of assay: BIAcore, mAb vs NUF4 (2:1). In general terms: SPR reads the build-up and loss of mass on a sensor chip optically.

A further assay addresses T4, Bac-F.
T4 construct: Construct and strain not described
Put plainly: BIAcore, mAb vs Bac-F (1:1).

For assay [5], the target named is T5, F protein of RSV A/Long MARM with K272E (respiratory syncytial virus strain …, UniProt P12568 26-574).
T5 construct: whole, on cells; also called MARM #6; MARM #9
Put plainly: IFA on MARM-infected HEp-2 cells.

Assay [6] addresses T6, F protein of RSV A/Long MARM with K272E, N276Y (respiratory syncytial virus strain …, UniProt P12568 26-574).
T6 construct: whole, on cells; also called MARM #10; MARM 10
Put plainly: IFA on MARM-infected HEp-2 cells.

Assay [7] addresses T7, F protein of RSV A/Long MARM with K272Q (respiratory syncytial virus strain …, UniProt P12568 26-574).
T7 construct: whole, on cells; also called MARM B9; B9
Put plainly: IFA on MARM-infected HEp-2 cells.

In assay [8] the target is T8, F protein of RSV A/Long MARM with K272T (respiratory syncytial virus strain …, UniProt P12568 26-574).
T8 construct: whole, on cells; also called MARM B7; MARM B10
Kind of assay: IFA on MARM-infected HEp-2 cells.

For assay [9], the target named is T9, F protein of RSV A/Long MARM with K272N (respiratory syncytial virus strain …, UniProt P12568 26-574).
T9 construct: whole, on cells; also called MARM B1
Put plainly: IFA on MARM-infected HEp-2 cells.

Assay [10] concerns the target T10, F protein of RSV A/Long MARM with K272M (respiratory syncytial virus strain …, UniProt P12568 26-574).
T10 construct: whole, on cells; Seven independent isolates with the same change are kept as one molecule; also called MARM B2; MARM B3
Kind of assay: IFA on MARM-infected HEp-2 cells.

In assay [11] the target is T3, RSV F glycoprotein (NUF4). Kind of assay: BIAcore, mAb vs NUF4 (1:1).
For assay [12], the target named is T3, RSV F glycoprotein (NUF4). Kind of assay: ITC, NUF4 titrated into antibody. A general note: In ITC the heat of successive injections is recorded.
Assay [13] concerns the target T3, RSV F glycoprotein (NUF4). Kind of assay: ITC, NUF4 titrated into antibody, 35 °C (1/Kb).
Assay [14] has as its target T3, RSV F glycoprotein (NUF4). Kind of assay: ITC, NUF4 titrated into antibody, 35 °C.

The source of these data is patent publication US20030091584A1 (AstraZeneca / MedImmune, published 2003).

Residue numbers refer to the chain shown, from its start.

One may read the Kd as the free concentration of one partner at which half of the binding sites on the other are occupied at equilibrium, for simple one-to-one binding. Low readings indicate higher affinity, high ones lower affinity. As a reminder, the koff is a measure of how fast the partners let go of each other. As usually defined, the kon is the second-order rate constant of association.

T1 sequence (P12568 26-574): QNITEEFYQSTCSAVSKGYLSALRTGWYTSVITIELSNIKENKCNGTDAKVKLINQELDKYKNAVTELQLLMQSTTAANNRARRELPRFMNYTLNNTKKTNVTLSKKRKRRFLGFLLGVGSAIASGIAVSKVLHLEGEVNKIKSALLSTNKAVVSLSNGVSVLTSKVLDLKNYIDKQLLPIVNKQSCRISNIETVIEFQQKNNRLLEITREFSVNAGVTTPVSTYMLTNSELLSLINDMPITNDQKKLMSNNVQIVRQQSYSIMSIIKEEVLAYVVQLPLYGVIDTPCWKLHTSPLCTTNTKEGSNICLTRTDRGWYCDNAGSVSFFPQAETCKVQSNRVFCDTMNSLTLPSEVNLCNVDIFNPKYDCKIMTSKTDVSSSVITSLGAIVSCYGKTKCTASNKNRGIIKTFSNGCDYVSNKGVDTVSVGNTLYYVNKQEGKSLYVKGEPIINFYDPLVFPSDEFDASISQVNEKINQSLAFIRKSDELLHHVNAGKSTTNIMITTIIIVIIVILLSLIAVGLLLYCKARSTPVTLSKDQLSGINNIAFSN

B1: SYNAGIS® (monoclonal antibody) (antibody, V domains shown)
VH: QVTLRESGPALVKPTQTLTLTCTFSGFSLSTSGMSVGWIRQPPGKALEWLADIWWDDKKDYNPSLKSRLTISKDTSKNQVVLKVTNMDPADTATYYCARSMITNWYFDVWGAGTTVTVSS
VL: DIQMTQSPSTLSASVGDRVTITCKCQLSVGYMHWYQQKPGKAPKLLIYDTSKLASGVPSRFSGSGSGTEFTLTISSLQPDDFATYYCFQGSGYPFTFGGGTKLEIK
notes: also called SYNAGIS ®/SYNAGIS ® (HC/LC)
On to B1, for which the “Mean IC50 (Control), RSV microneutralization” value (“Mean IC50 (Control)” below) in assay [1] is 0.535 µg/mL. For the same molecule, the “Mean IC50 (Curve), RSV microneutralization” value (shortened to “Mean IC50 (Curve)”) in assay [1] stood at 0.453 µg/mL. For the same molecule, the “EC50 (nM), in vitro microneutralization of RSV Long” value in assay [2] was 3.57 nM. In addition, the binding result in [3], in [5], in assay [6], in assay [7], in assay [8] and in assay [9] was “no binding (tested: 250 ng/ml)” throughout. In addition, the binding result in assay [10] is listed as “no binding (tested: 250 ng/ml)”. The Kd stood at 312 nM in assay [4], 3.9 nM with Bac-F and 8.7 nM in assay [11].

B2: A13c4 (monoclonal antibody) (antibody, V domains shown)
VH: B1 VH with S32A, D57G, D60S, S67D, S100D, T103F, W105F, A112Q
VL: B1 VL with K24S, C25L, Q26S, L27S, S28R, S51M, K52Y, L53Q, A54S, L103V
notes: mAb with framework and constant regions of SYNAGIS
For B2, in assay [1], the “Fold Difference (Control IC50)” value came out at 14 fold; the “Fold Difference (Curve IC50)” value was 12 fold; the “Mean IC50 (Control)” value came to 0.0375 µg/mL; the “Mean IC50 (Curve)” value came to 0.0376 µg/mL. Also, the “ΔHb (binding enthalpy)” value in assay [12] was 16 kcal/mol. In assay [4], the Kd is 0.7 nM, the dissociation rate constant (koff) worked out at 0.000225 s⁻¹, the kon is 320000 M⁻¹ s⁻¹ and the “number in parentheses after KD (fold against SYNAGIS = 1)” value (shortened to “number … (fold against SYNAGIS = 1)”) is 446 fold. The same molecule showed a Kd in assay [13] of 9 nM. The same molecule returned a Ka in [14] of 1.07e+08 M⁻¹. Also, in [11], the affinity, expressed as Kd, was 0.75 nM; the koff turned out to be 0.000272 s⁻¹; the kon is 365000 M⁻¹ s⁻¹; the “number … (fold against SYNAGIS = 1)” value is 12 fold.

B3: A17d4 (monoclonal antibody) (antibody, V domains shown)
VH: B1 VH with S32A, D57G, D60S, S67D, S100D, T103F, W105F, A112Q
VL: B1 VL with K24L, C25P, Q26S, L27S, S28R, S51M, K52Y, L53Q, G90F
notes: as for B2
In the case of B3, in assay [1], the “Fold Difference (Control IC50)” value is 15 fold; the “Fold Difference (Curve IC50)” value was determined as 13 fold; the “Mean IC50 (Control)” value came to 0.0354 µg/mL; the “Mean IC50 (Curve)” value came to 0.0342 µg/mL. Further, the “ΔHb (binding enthalpy)” value in assay [12] was determined as 16.3 kcal/mol. In addition, in [4], the Kd was 1.11 nM, the koff worked out at 0.000292 s⁻¹, the kon was 264000 M⁻¹ s⁻¹ and the “number … (fold against SYNAGIS = 1)” value amounted to 281 fold. Besides, binding in [13] was put at a Kd of 13 nM. The same molecule displayed a Ka in [14] of 7.5e+07 M⁻¹. Further, in assay [11], the Kd came out at 0.73 nM, the koff is 0.000362 s⁻¹, the kon is 499000 M⁻¹ s⁻¹ and the “number … (fold against SYNAGIS = 1)” value came to 12 fold.

B4: A4B4 (monoclonal antibody) (antibody, V domains shown)
VH: B1 VH with S32A, D60H, S67D, S100D, T103F, W105F, A112Q
VL: B1 VL with K24S, C25A, Q26S, L27S, S28R, S51F, K52F, A54D
notes: mAb; also called A4B4/A4B4 (HC/LC)
Turning to B4, in [1], the “Fold Difference (Control IC50)” value was found to be 35 fold; the “Fold Difference (Curve IC50)” value was 27 fold; the “Mean IC50 (Control)” value stood at 0.0154 µg/mL; the “Mean IC50 (Curve)” value is 0.0171 µg/mL. Further, the “ΔHb (binding enthalpy)” value in [12] is 22.2 kcal/mol. Also, in assay [3], the binding result is listed as “no binding (tested: 250 ng/ml)”. In addition, in [4], binding was characterised by a dissociation constant (Kd) of 2 nM, the koff amounted to 0.000401 s⁻¹, the kon amounted to 203000 M⁻¹ s⁻¹ and the “number … (fold against SYNAGIS = 1)” value came out at 156 fold. In assay [13], this molecule came in with a Kd of about 3.7 nM. Also, in the assay with Bac-F, the Kd came to 0.02 nM, the koff was determined as 1.06e-05 s⁻¹, the kon turned out to be 434000 M⁻¹ s⁻¹ and the “number … (fold against SYNAGIS = 1)” value stood at 195 fold. Besides, the binding result in assay [5] is “no binding (tested: 250 ng/ml)”. Further, the binding result in [6] was “no binding (tested: 250 ng/ml)”. The Ka in [14] was 2.69e+08 M⁻¹. Also, in assay [11], the dissociation constant (Kd) was 0.57 nM, the koff came to 0.000282 s⁻¹, the kon was determined as 496000 M⁻¹ s⁻¹ and the “number … (fold against SYNAGIS = 1)” value amounted to 15 fold.
